Measurements: patent EP0842948B1 (MOCHIDA PHARMACEUTICAL CO., LTD., dated 2009)
“And” between values parts separate entries of the source, which are not always exact repeats. Equal entries are not always repeated.

Experiments:
[1] = molecular target: T1, human Fas ligand expressed on 1A12 cells (human, UniProt P48023 1-281); assay: competitive binding against 125I-labelled mouse F919 on 1A12 cells
T1 construct: whole, on cells; also called Fas ligand antigen on 1A12 transfectant cells
T1 sequence (looked up): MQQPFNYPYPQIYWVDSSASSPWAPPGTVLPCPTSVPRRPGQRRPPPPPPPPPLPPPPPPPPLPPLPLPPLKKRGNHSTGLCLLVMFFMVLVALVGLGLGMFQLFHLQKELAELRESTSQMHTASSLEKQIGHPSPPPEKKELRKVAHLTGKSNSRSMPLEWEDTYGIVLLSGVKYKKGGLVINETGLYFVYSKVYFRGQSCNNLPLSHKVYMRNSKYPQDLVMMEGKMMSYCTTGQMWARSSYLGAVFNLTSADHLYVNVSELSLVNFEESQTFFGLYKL

[2] = molecular target: extracellular domain of the Fas ligand derived from COS-1 cell (human); assay: cell-based or functional assay

Ka [1]: 3e+08 M⁻¹ and 4e+08 M⁻¹ | apoptosis-suppression activity (fold against F883-1-1) [2]: 100
B1: mouse monoclonal antibody F919-9-18 (antibody, V domains shown)
VH: QIQLVQSGPELKKPGETVKISCKASGYTFTEYPMHWVKQAPGKGFKWMGMIYTDTGEPSYAEEFKGRFAFSLETSASTAYLQINFLKNEDTATYFCVRFYWDYFDYWGQGTTLTVSS
VL: DIQMTQTTSSLSASLGDRVTISCRASQDISNYLNWYQQKPDGTVKLLIYYTSRLHSGVPSRFSGSGSGTNYSLTISNLEQGDIATYFCQQGSTLPWTFGGGTKLEIK
